According to publication PMC5663475, “SAV1 promotes Hippo kinase activation through antagonizing the PP2A phosphatase STRIPAK” (eLife, 2017):

B1: Myc-SAV1 SARAH (residues 321–383) wild type [modified: 35S-methionine labelled; 35S-methionine labelled] [human] / GST-MST2 SARAH (residues 430–491) [human] (parent complex)
chain 1: ILKWELFQLADLDTYQGMLKLLFMKELEQIVKMYEAYRQALLTELENRKQRQQWYAQQHGKNF
chain 2: KVPQDGDFDFLKNLSLEELQMRLKALDPMMEREIEELRQRYTAKRQPILDAMDAKKRRQQNF

Variants of: B1
Assay: GST pull-down of in vitro translated 35S-labeled Myc-SAV1 SARAH, quantified; read off a plot

ratio to parent | Variant
~0.01 | chain 1 L41A
~0.03 | chain 1 R48A
~0.36 | chain 1 Y34A
~0.2 | chain 1 L42A
~0.4 | chain 1 Q16A
~0.02 | chain 1 E26A

Further lines, the variant ahead of its results:

Variant | ratio to parent
chain 1 R38A | ~0.03
chain 1 I30A | ~0.04
chain 1 Y37A | ~0.04
chain 1 L45A | ~0.06
chain 1 V31A | ~0.53
chain 1 L27A | ~0.7
chain 1 T14A | ~0.9
